Patent publication US20190338038A1 (CELLERANT THERAPEUTICS, published 2019)

Legend:
[1] = target: T1, human interleukin 1 receptor accessory protein, membrane-bound form on cells (human, UniProt Q9NPH3 21-570); assay: FACS on EOL-1 cells, FITC; antibody concentration not given
T1 construct: On IL1-RAP-transfected 293 cells, AML cell lines (EOL-1, HNT-34, OCI-AML2, OCI-AML3), primary AML cells and HEK-Blue IL-1β cells; also called IL1-RAP; receptor IL1-RAP
T1 sequence: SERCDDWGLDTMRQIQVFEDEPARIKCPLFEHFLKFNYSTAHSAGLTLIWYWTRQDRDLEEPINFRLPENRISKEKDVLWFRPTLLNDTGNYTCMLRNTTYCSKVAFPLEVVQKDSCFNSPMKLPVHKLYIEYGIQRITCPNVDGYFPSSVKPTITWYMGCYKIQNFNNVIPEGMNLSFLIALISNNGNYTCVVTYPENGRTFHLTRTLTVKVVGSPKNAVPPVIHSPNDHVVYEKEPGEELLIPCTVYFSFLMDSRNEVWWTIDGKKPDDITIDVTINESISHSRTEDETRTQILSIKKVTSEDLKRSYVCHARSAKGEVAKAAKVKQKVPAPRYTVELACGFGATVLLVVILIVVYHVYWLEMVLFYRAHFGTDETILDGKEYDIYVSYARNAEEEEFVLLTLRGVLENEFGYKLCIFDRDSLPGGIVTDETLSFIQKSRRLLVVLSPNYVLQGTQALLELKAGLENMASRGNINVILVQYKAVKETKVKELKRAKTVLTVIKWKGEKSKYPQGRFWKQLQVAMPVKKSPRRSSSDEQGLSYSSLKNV

[2] = target: T2, IL1-RAP (antigen of the kinetic measurements of Tables 5A and 5B) (human, UniProt Q9NPH3 21-359, limits assumed); assay: kinetics, Table 5A; method and antigen form not stated
T2 sequence: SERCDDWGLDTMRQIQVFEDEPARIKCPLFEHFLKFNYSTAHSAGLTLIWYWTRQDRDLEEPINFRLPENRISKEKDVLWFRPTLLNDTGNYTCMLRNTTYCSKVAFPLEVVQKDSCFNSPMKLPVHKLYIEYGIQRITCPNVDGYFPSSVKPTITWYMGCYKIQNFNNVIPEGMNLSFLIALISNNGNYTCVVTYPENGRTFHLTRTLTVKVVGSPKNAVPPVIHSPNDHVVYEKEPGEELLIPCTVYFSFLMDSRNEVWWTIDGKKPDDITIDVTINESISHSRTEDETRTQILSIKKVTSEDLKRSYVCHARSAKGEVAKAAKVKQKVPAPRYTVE

[3] = target: T1, human interleukin 1 receptor accessory …; assay: FACS titration on EOL-1 cells
[4] = target: T2, IL1-RAP (antigen of the kinetic …); assay: kinetics, Table 5A; method and antigen form not stated; Table 5A
[5] = target: T2, IL1-RAP (antigen of the kinetic …); assay: kinetics, Table 5B; method and antigen form not stated
[6] = target: T2, IL1-RAP (antigen of the kinetic …); assay: kinetics, Table 5B; method and antigen form not stated; Table 5B
[7] = target: T1, human interleukin 1 receptor accessory …; assay: FACS titration on EOL-1 cells; remark: listed apart in the source
[8] = target: T3, his-tagged extracellular domain (ECD) of IL1-RAP (human, UniProt Q9NPH3 21-367); assay: sandwich ELISA: plate coated with goat anti-IL1RAP antibody, then extracellular domain of IL1-RAP, then 2H8
T3 construct: also called ECD IL1-RAP; IL1-RAP-His fusion protein
T3 sequence: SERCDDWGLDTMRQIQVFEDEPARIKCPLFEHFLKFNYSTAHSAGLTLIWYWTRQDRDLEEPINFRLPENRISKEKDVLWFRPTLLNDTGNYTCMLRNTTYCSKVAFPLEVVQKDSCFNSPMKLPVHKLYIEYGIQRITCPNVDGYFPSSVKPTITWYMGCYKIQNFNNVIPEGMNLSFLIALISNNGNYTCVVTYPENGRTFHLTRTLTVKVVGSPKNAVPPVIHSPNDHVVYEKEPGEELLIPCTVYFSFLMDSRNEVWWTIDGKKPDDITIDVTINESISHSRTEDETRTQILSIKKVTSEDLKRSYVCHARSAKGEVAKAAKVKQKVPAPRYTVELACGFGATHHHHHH
Method: (§1) The extracellular domain of IL1-RAP (Q9NPH3-4) and soluble IL1-RAP form (Q9NPH3-2) were expressed and purified from 293 cells. Sandwich ELISA was performed. The binding data shown in FIGS. 3A and 3B supports the conclusion that clone 2H8 binds to membrane-bound IL1-RAP better compared to soluble IL1-RAP form.

[9] = target: T1, human interleukin 1 receptor accessory …; assay: FACS titration on HNT-34 cells
[10] = target: T1, human interleukin 1 receptor accessory …; assay: FACS titration on IL1-RAP transfected 293 cells
[11] = target: T4, soluble IL1-RAP form (isoform 2) (human, UniProt Q9NPH3 21-350); assay: sandwich ELISA: plate coated with goat anti-IL1RAP antibody, then soluble IL1-RAP, then 2H8
T4 construct: Expressed in and purified from 293 cells; also called Q9NPH3-2; soluble form IL1RAP
T4 sequence: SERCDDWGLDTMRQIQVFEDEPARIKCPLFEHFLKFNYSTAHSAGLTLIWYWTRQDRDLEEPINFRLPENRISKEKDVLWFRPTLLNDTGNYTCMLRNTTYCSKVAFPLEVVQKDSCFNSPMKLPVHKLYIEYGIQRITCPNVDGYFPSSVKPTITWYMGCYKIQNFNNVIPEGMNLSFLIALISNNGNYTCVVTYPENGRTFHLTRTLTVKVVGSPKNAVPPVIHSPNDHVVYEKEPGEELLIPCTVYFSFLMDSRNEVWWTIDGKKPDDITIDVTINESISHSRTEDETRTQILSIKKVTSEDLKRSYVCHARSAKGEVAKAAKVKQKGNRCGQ
Method: as §1

B1: chimeric 54.9D7 (antibody, V domains shown)
VH: HVQLQQSGPELVRPGASVKLSCKASGYIFITYWMNWVKQRPGQGLEWVGQIFPASGTTYYNELFEGKATLTVDTSSNTAYMHLTSLTSEDSAVYYCARTDFYRYDGGYALDYWGQGTSLTVSS
VL: DIVLTQSPISLAVFLGQRATISCRASQSVSTSGYSSMHWYQQKAGQPPKLLIKYASDLESGVPVRFSGSGSGTDFILNIHPVEVEDIATYYCHHSWGIPMYTFGGGTKLEIKR
notes: Chimeric antibody; also called Chi54.9D7
**Q.** B1 was tested. Which MFI [1] did it give?
**A.** Its MFI is 32.2.

**Q.** What about the koff [2] of the same binder?
**A.** The koff was under 1e-07 s⁻¹.

**Q.** What about the kon [2] of the same binder?
**A.** The kon was 143000 M⁻¹ s⁻¹.

**Q.** What about the “EC50 (read off the curve)” value [3] of the same binder?
**A.** Its value is about 200 nM.

**Q.** And the Kd [4]?
**A.** Its Kd is under 0.001 nM.

**Q.** What about the koff [5] of the same binder?
**A.** The koff was under 1e-07 s⁻¹.

**Q.** And the kon [5]?
**A.** Its kon is 158000 M⁻¹ s⁻¹.

**Q.** And the Kd [6]?
**A.** The Kd was under 0.001 nM.

B2: anti-IL1-RAP antibody clone 2H8 (antibody, V domains shown)
VH: QIQLVQSGPELKKPGETVKISCKASGYTFTDYSMHWVKQAPGKGLKWMGWINTETGEPTYADDFKGRFAFSLETSASTAYLQINNLKNEDTATYFCARYYGYFDYWGQGTTLTVSS
VL: DIVLTQSPASLAVSLGQRATISCRASESVDSYGNSFMHWYQQKPGQPPKLLIYRASNLESGIPARFSGSGSRTDFTLTINPVEADDVATYYCQQSNEDPWTFGGGTKLEIK
notes: Mouse monoclonal antibody; also called 2H8.3
**Q.** B2 was tested. Which “EC50 (read off the curve)” value [7] did it give?
**A.** Its value is about 1 mg/L.

**Q.** And the “EC50 (read off the curve)” value [8]?
**A.** The value was about 0.6 mg/L.

**Q.** And the “EC50 (read off the curve)” value [9]?
**A.** Its value is about 0.5 mg/L.

**Q.** And the “EC50 (read off the curve)” value [10]?
**A.** Its value is about 0.9 mg/L.

**Q.** And the “EC50 (read off the curve)” value [11]?
**A.** Its value is about 1 mg/L.
